Values belong to the sequence of their own block, whether it stands above or below them.
Legend:
[1] = biological target: HLA-B*51:01; assay: IEDB peptide-MHC binding, purified MHC/competitive/radioactivity; filed as Kd, often an IC50 or EC50 that approximates it; ≥ and ≤ were set here for values at or beyond the usual limits of such assays
[2] = biological target: HLA-A*24:02; assay: IEDB peptide-MHC binding, purified MHC/competitive/fluorescence; ≥ and ≤ were set here for values at or beyond the usual limits of such assays
[3] = biological target: HLA-B*44:02; assay: IEDB peptide-MHC binding, purified MHC/competitive/radioactivity; filed as Kd, often an IC50 or EC50 that approximates it; ≥ and ≤ were set here for values at or beyond the usual limits of such assays
[4] = biological target: HLA-B*15:01; assay: IEDB peptide-MHC binding, purified MHC/direct/fluorescence; filed as Kd, often an IC50 or EC50 that approximates it; ≥ and ≤ were set here for values at or beyond the usual limits of such assays; conditions: source organism: Homo sapiens
[5] = biological target: HLA-B*07:02; assay: as above; conditions: source organism: Homo sapiens
[6] = biological target: HLA-A*68:02; assay: IEDB peptide-MHC binding, purified MHC/competitive/radioactivity; filed as Kd, often an IC50 or EC50 that approximates it; ≥ and ≤ were set here for values at or beyond the usual limits of such assays
[7] = biological target: HLA-B*53:01; assay: as above
[8] = biological target: HLA-A*26:01; assay: as above
[9] = biological target: HLA-A*02:01; assay: IEDB peptide-MHC binding, purified MHC/competitive/fluorescence; ≥ and ≤ were set here for values at or beyond the usual limits of such assays
[10] = biological target: HLA-A*30:01; assay: IEDB peptide-MHC binding, purified MHC/competitive/radioactivity; filed as Kd, often an IC50 or EC50 that approximates it; ≥ and ≤ were set here for values at or beyond the usual limits of such assays
[11] = biological target: HLA-B*57:01; assay: IEDB peptide-MHC binding, purified MHC/direct/fluorescence; filed as Kd, often an IC50 or EC50 that approximates it; ≥ and ≤ were set here for values at or beyond the usual limits of such assays; conditions: source organism: West Nile virus
[12] = biological target: HLA-A*02:03; assay: IEDB peptide-MHC binding, purified MHC/competitive/radioactivity; filed as Kd, often an IC50 or EC50 that approximates it; ≥ and ≤ were set here for values at or beyond the usual limits of such assays
[13] = biological target: HLA-A*02:06; assay: as above
[14] = biological target: HLA-A*02:02; assay: as above
[15] = biological target: HLA-B*44:03; assay: as above
[16] = biological target: HLA-A*01:01; assay: IEDB peptide-MHC binding, purified MHC/direct/fluorescence; filed as Kd, often an IC50 or EC50 that approximates it; ≥ and ≤ were set here for values at or beyond the usual limits of such assays; conditions: source organism: Homo sapiens
[17] = biological target: HLA-A*69:01; assay: as above; conditions: source organism: Homo sapiens
[18] = biological target: HLA-A*11:01; assay: as above; conditions: source organism: Homo sapiens
[19] = biological target: HLA-A*32:01; assay: IEDB peptide-MHC binding, purified MHC/competitive/radioactivity; filed as Kd, often an IC50 or EC50 that approximates it; ≥ and ≤ were set here for values at or beyond the usual limits of such assays; conditions: source organism: Dengue virus 1 Brazil/97-11/1997
[20] = source organism: Dengue virus 4 Philippines/H241/1956
[21] = source organism: Zaire ebolavirus
[22] = source organism: Dengue virus 1 Brazil/97-11/1997
[23] = source organism: Dengue virus 2 Jamaica/1409/1983
[24] = source organism: Vaccinia virus WR
[25] = source organism: Lymphocytic choriomeningitis virus (strain Armstrong) (clone 53b)
[26] = source organism: Trypanosoma cruzi
[27] = source organism: Sudan ebolavirus
[28] = source organism: Dengue virus 2 Peru/IQT2913/1996
[29] = source organism: Dengue virus 3 Martinique/1243/1999
[30] = source organism: Dengue virus 4 Dominica/814669/1981

Sequence: FSGKGPLRMV
- Kd [1, 20]: ≥ 38000 nM

Sequence: KRSNTTGKL
- IC50 [2, 21]: 66100 nM

Sequence: ADSGCVINW
- Kd [3, 22]: 70.7 nM

- Kd [4]: 2350 nM
- Kd [5]: 5980 nM
Sequence: LPHQPLATY

- Kd ([6]; source organism: Homo sapiens): 1210 nM
Sequence: ELRRQVDQL

Sequence: LPMTVAAMG
- Kd ([7]; source organism: Dengue virus 3 Sri Lanka/1266/2000): 3540 nM

Sequence: EAIMAVGMV
- Kd [6, 23]: 1.79 nM
- Kd [8, 23]: 43.9 nM

Sequence: RTLAAMPEE
- IC50 [2, 21]: 6750 nM
- IC50 [9, 21]: ≥ 351000 nM

Sequence: IEKTKTDFGF
- Kd [3, 20]: 1730 nM

Sequence: TVFFVLMML
- Kd [6, 20]: 36 nM

Sequence: KFMSNGEHV
- IC50 [2, 24]: 4440 nM
- IC50 [9, 24]: 27700 nM

Sequence: ATFTVNIFK
- Kd [10, 24]: 3.13 nM

Sequence: VSRLEHQMW
- Kd [11]: 90.5 nM

Sequence: KDFFSSHPL
- IC50 [2, 21]: 55100 nM
- IC50 [9, 21]: ≥ 249000 nM

Sequence: QPTELKYSW
- Kd [7, 23]: 11 nM

Sequence: CTILAVVSV
- Kd ([6]; source organism: Dengue virus 2 16681-PDK53): 54.1 nM

Sequence: SLNQTVHSL
- Kd [6, 25]: 16100 nM
- Kd [12, 25]: 2.4 nM
- Kd [13, 25]: ≥ 28100 nM
- Kd [14, 25]: 1.9 nM

Sequence: AELEDGAYRI
- Kd [15, 23]: 17.9 nM
- Kd [3, 23]: 16 nM

Sequence: AEAIFKLTY
- Kd [15, 23]: 34.7 nM
- Kd [3, 23]: 3.67 nM

Sequence: SHLTTLATI
- IC50 [2, 21]: 402 nM
- IC50 [9, 21]: 13200 nM

Sequence: FVNYNFTLV
- Kd [6, 26]: 0.336 nM
- Kd [12, 26]: 0.759 nM
- Kd [13, 26]: 0.0031 nM
- Kd [14, 26]: 10.4 nM

Sequence: RTRYDTFKV
- Kd [10, 24]: 0.197 nM

Sequence: GAFFLYDRL
- IC50 [2, 27]: ≥ 122000 nM
- IC50 [9, 27]: ≥ 158000 nM

Sequence: AERVLDWLEK
- Kd [3, 22]: 3270 nM

Sequence: WPLSKMDIGV
- Kd [1, 28]: 2670 nM

Sequence: AFHKDGAFF
- IC50 [2, 27]: 9670 nM

Sequence: LALREFKEF
- Kd [7, 22]: 1730 nM

Sequence: HAYQGDYKL
- IC50 [2, 21]: 20900 nM
- IC50 [9, 21]: ≥ 78000 nM

Sequence: NARLMRALK
- Kd [10, 24]: 2.22 nM

- Kd ([6]; source organism: Homo sapiens): 7440 nM
Sequence: PLNDNIATLL

Sequence: TTELRTFSI
- IC50 [2, 21]: 12200 nM
- IC50 [9, 21]: 68300 nM

Sequence: SSVNVSLTAI
- Kd [6, 23]: 184 nM

- Kd [16]: 42.6 nM
- Kd [17]: 3960 nM
- Kd [18]: 6940 nM
Sequence: GSEDRDLLY

Sequence: QPTELRYSW
- Kd [7, 28]: 52.6 nM

Sequence: EEREIPERSW
- Kd [15, 23]: 242 nM
- Kd [3, 23]: 66.5 nM

Sequence: QTQSRPIQN
- IC50 [2, 21]: ≥ 128000 nM

Sequence: ETYQLWTALI
- Kd [6, 29]: 2.28 nM
- Kd [8, 29]: 114 nM

Sequence: VEPGQLKLNW
- Kd [15, 23]: 63.2 nM
- Kd [3, 23]: 389 nM

Sequence: RFRTVLISK
- Kd ([10]; source organism: Vaccinia virus Copenhagen): 4.59 nM

Sequence: MTAGIFLFFM
- Kd [6, 20]: 10.4 nM
- Kd [8, 20]: 15.9 nM

Sequence: KSKQLKSFL
- Kd [10, 24]: 13.2 nM

Sequence: KVYIGYCMA
- Kd [10, 24]: 2.6 nM

Sequence: KVVRVQRPAK
- Kd [10, 22]: 6.11 nM

Sequence: MSPGYVLGV
- Kd [6, 30]: 99.6 nM

Sequence: EVLTLATGPI
- Kd [6, 30]: 100 nM
- Kd [8, 30]: 10400 nM

Sequence: RTKPASAPI
- Kd [10, 24]: 0.114 nM

Sequence: YAPFARLLN
- IC50 [2, 21]: 19300 nM
- IC50 [9, 21]: ≥ 87800 nM

Sequence: MEHKYSWKSW
- Kd [19]: 2040 nM
- Kd [15, 22]: 137 nM
- Kd [3, 22]: 11.2 nM

Reference: the Immune Epitope Database (IEDB)
